From article PMC9663165, “Human immunomodulatory ligand B7-1 mediates synaptic remodeling via the p75 neurotrophin receptor” (The Journal of Clinical Investigation, 2022) come the findings set out here.

One assay addresses T1, CD28-GFP (human, UniProt P10747 19-220).
T1 construct: human CD28, member of the human Ig superfamily library; source: HEK293F, transfected, on cells; not shown: GFP, C-terminal, kept
Briefly: flow cytometry on cells; cell-cell conjugates: HEK293F cells expressing 92 B7-1–mCherry point mutants (IgV domain) against HEK293F cells expressing CTLA-4–GFP, CD28-GFP or p75NTR-GFP; percent of WT binding. The note with it: partners not purified. For orientation: A flow cytometer gives signals particle by particle.

For assay [1], the target named is T2, full-length human p75 neurotrophin receptor fused at the cytoplasmic C-terminus to GFP (human, UniProt P08138 29-427).
T2 construct: As query against the GFP-tagged library it carried the opposite colour tag (mCherry); kept as one molecule; also called p75^NTR; NGFR; source: HEK293 suspension cells, transiently transfected, on cells; not shown: GFP, C-terminal, kept
T2 sequence (looked up): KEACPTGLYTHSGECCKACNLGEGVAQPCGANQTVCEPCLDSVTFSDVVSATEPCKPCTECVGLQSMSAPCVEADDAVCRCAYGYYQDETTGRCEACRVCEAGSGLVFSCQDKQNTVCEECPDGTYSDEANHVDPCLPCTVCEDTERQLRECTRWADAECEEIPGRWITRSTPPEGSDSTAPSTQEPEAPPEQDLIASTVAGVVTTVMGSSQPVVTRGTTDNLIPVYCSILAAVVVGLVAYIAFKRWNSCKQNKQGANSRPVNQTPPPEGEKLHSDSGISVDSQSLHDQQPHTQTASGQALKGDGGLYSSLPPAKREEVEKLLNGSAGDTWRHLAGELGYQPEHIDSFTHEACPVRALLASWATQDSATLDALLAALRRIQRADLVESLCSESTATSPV
Described as above. The conditions noted are these: partners not purified.

B1: hB7-1 E41A–mCherry (ligand, human, UniProt P33681 35-288, looked up)
chain: VIHVTKAVKEVATLSCGHNVSVEELAQTRIYWQKEKKMVLTMMSGDMNIWPEYKNRTIFDITNNLSIVILALRPSDEGTYECVVLKYEKDAFKREHLAEVTLSVKADFPTPSISDFEIPTSNIRRIICSTSGGFPEPHLSWLENGEELNAINTTVSQDPETELYAVSSKLDFNMTTNHSFMCLIKYGHLRVNQTFNWNTTKQEHFPDNLLPSWAITLISVNGIFVICCLTYCFAPRCRERRRNERLRRESVRPV
notes: human B7-1 (CD80), point mutant in the IgV domain; source: HEK293F, transfected, on cells
On to B1, for which the “loss in binding relative to WT” value with CD28-GFP was more than 25%.

B2: hB7-1 I36D–mCherry (ligand, human, UniProt P33681 35-288, looked up)
chain: VDHVTKEVKEVATLSCGHNVSVEELAQTRIYWQKEKKMVLTMMSGDMNIWPEYKNRTIFDITNNLSIVILALRPSDEGTYECVVLKYEKDAFKREHLAEVTLSVKADFPTPSISDFEIPTSNIRRIICSTSGGFPEPHLSWLENGEELNAINTTVSQDPETELYAVSSKLDFNMTTNHSFMCLIKYGHLRVNQTFNWNTTKQEHFPDNLLPSWAITLISVNGIFVICCLTYCFAPRCRERRRNERLRRESVRPV
notes: as for B1
B2: the “loss in binding relative to WT” value (in the assay with CD28-GFP; in assay [1]) was more than 25% throughout.

B3: hB7-1 K127D–mCherry (ligand, human, UniProt P33681 35-288, looked up)
chain: VIHVTKEVKEVATLSCGHNVSVEELAQTRIYWQKEKKMVLTMMSGDMNIWPEYKNRTIFDITNNLSIVILALRPSDEGTYECVVLKYEKDAFDREHLAEVTLSVKADFPTPSISDFEIPTSNIRRIICSTSGGFPEPHLSWLENGEELNAINTTVSQDPETELYAVSSKLDFNMTTNHSFMCLIKYGHLRVNQTFNWNTTKQEHFPDNLLPSWAITLISVNGIFVICCLTYCFAPRCRERRRNERLRRESVRPV
notes: as for B1
On to B3, for which, in the assay with CD28-GFP, the “loss in binding relative to WT” value is more than 25%.

B4: hB7-1 V45D–mCherry (ligand, human, UniProt P33681 35-288, looked up)
chain: VIHVTKEVKEDATLSCGHNVSVEELAQTRIYWQKEKKMVLTMMSGDMNIWPEYKNRTIFDITNNLSIVILALRPSDEGTYECVVLKYEKDAFKREHLAEVTLSVKADFPTPSISDFEIPTSNIRRIICSTSGGFPEPHLSWLENGEELNAINTTVSQDPETELYAVSSKLDFNMTTNHSFMCLIKYGHLRVNQTFNWNTTKQEHFPDNLLPSWAITLISVNGIFVICCLTYCFAPRCRERRRNERLRRESVRPV
notes: as for B1
In the case of B4, the “loss in binding relative to WT” value with CD28-GFP was more than 25%.

B5: hB7-1 L131D–mCherry (ligand, human, UniProt P33681 35-288, looked up)
chain: VIHVTKEVKEVATLSCGHNVSVEELAQTRIYWQKEKKMVLTMMSGDMNIWPEYKNRTIFDITNNLSIVILALRPSDEGTYECVVLKYEKDAFKREHDAEVTLSVKADFPTPSISDFEIPTSNIRRIICSTSGGFPEPHLSWLENGEELNAINTTVSQDPETELYAVSSKLDFNMTTNHSFMCLIKYGHLRVNQTFNWNTTKQEHFPDNLLPSWAITLISVNGIFVICCLTYCFAPRCRERRRNERLRRESVRPV
notes: as for B1
With B5, the “loss in binding relative to WT” value in the assay with CD28-GFP is more than 25%.

B6: hB7-1 K40D–mCherry (ligand, human, UniProt P33681 35-288, looked up)
chain: VIHVTDEVKEVATLSCGHNVSVEELAQTRIYWQKEKKMVLTMMSGDMNIWPEYKNRTIFDITNNLSIVILALRPSDEGTYECVVLKYEKDAFKREHLAEVTLSVKADFPTPSISDFEIPTSNIRRIICSTSGGFPEPHLSWLENGEELNAINTTVSQDPETELYAVSSKLDFNMTTNHSFMCLIKYGHLRVNQTFNWNTTKQEHFPDNLLPSWAITLISVNGIFVICCLTYCFAPRCRERRRNERLRRESVRPV
notes: human B7-1 (CD80), point mutant in the IgV domain; printed once as K40D and once as Y40D; also called Y40D; source: HEK293F, transfected, on cells
For the molecule B6, the “loss in binding relative to WT” value (with CD28-GFP; in assay [1]) was more than 25% throughout.

B7: hB7-1 E69A–mCherry (ligand, human, UniProt P33681 35-288, looked up)
chain: VIHVTKEVKEVATLSCGHNVSVEELAQTRIYWQKAKKMVLTMMSGDMNIWPEYKNRTIFDITNNLSIVILALRPSDEGTYECVVLKYEKDAFKREHLAEVTLSVKADFPTPSISDFEIPTSNIRRIICSTSGGFPEPHLSWLENGEELNAINTTVSQDPETELYAVSSKLDFNMTTNHSFMCLIKYGHLRVNQTFNWNTTKQEHFPDNLLPSWAITLISVNGIFVICCLTYCFAPRCRERRRNERLRRESVRPV
notes: as for B1
Consider B7, for which, in the assay with CD28-GFP, the “loss in binding relative to WT” value was more than 25%.

B8: hB7-1 K43D–mCherry (ligand, human, UniProt P33681 35-288, looked up)
chain: VIHVTKEVDEVATLSCGHNVSVEELAQTRIYWQKEKKMVLTMMSGDMNIWPEYKNRTIFDITNNLSIVILALRPSDEGTYECVVLKYEKDAFKREHLAEVTLSVKADFPTPSISDFEIPTSNIRRIICSTSGGFPEPHLSWLENGEELNAINTTVSQDPETELYAVSSKLDFNMTTNHSFMCLIKYGHLRVNQTFNWNTTKQEHFPDNLLPSWAITLISVNGIFVICCLTYCFAPRCRERRRNERLRRESVRPV
notes: as for B1
Turning to B8, the “loss in binding relative to WT” value (with CD28-GFP; in assay [1]) was more than 25% throughout.

B9: hB7-1 R63D–mCherry (ligand, human, UniProt P33681 35-288, looked up)
chain: VIHVTKEVKEVATLSCGHNVSVEELAQTDIYWQKEKKMVLTMMSGDMNIWPEYKNRTIFDITNNLSIVILALRPSDEGTYECVVLKYEKDAFKREHLAEVTLSVKADFPTPSISDFEIPTSNIRRIICSTSGGFPEPHLSWLENGEELNAINTTVSQDPETELYAVSSKLDFNMTTNHSFMCLIKYGHLRVNQTFNWNTTKQEHFPDNLLPSWAITLISVNGIFVICCLTYCFAPRCRERRRNERLRRESVRPV
notes: as for B1
For the molecule B9, in the assay with CD28-GFP, the “loss in binding relative to WT” value was more than 25%.

B10: hB7-1 T39A–mCherry (ligand, human, UniProt P33681 35-288, looked up)
chain: VIHVAKEVKEVATLSCGHNVSVEELAQTRIYWQKEKKMVLTMMSGDMNIWPEYKNRTIFDITNNLSIVILALRPSDEGTYECVVLKYEKDAFKREHLAEVTLSVKADFPTPSISDFEIPTSNIRRIICSTSGGFPEPHLSWLENGEELNAINTTVSQDPETELYAVSSKLDFNMTTNHSFMCLIKYGHLRVNQTFNWNTTKQEHFPDNLLPSWAITLISVNGIFVICCLTYCFAPRCRERRRNERLRRESVRPV
notes: as for B1
Turning to B10, the “loss in binding relative to WT” value (with CD28-GFP; in assay [1]) was more than 25% throughout.

B11: hB7-1 I36A–mCherry (ligand, human, UniProt P33681 35-288, looked up)
chain: VAHVTKEVKEVATLSCGHNVSVEELAQTRIYWQKEKKMVLTMMSGDMNIWPEYKNRTIFDITNNLSIVILALRPSDEGTYECVVLKYEKDAFKREHLAEVTLSVKADFPTPSISDFEIPTSNIRRIICSTSGGFPEPHLSWLENGEELNAINTTVSQDPETELYAVSSKLDFNMTTNHSFMCLIKYGHLRVNQTFNWNTTKQEHFPDNLLPSWAITLISVNGIFVICCLTYCFAPRCRERRRNERLRRESVRPV
notes: as for B1
On to B11, for which, in the assay with CD28-GFP, the “loss in binding relative to WT” value was more than 25%.

B12: hB7-1 Y121D–mCherry (ligand, human, UniProt P33681 35-288, looked up)
chain: VIHVTKEVKEVATLSCGHNVSVEELAQTRIYWQKEKKMVLTMMSGDMNIWPEYKNRTIFDITNNLSIVILALRPSDEGTYECVVLKDEKDAFKREHLAEVTLSVKADFPTPSISDFEIPTSNIRRIICSTSGGFPEPHLSWLENGEELNAINTTVSQDPETELYAVSSKLDFNMTTNHSFMCLIKYGHLRVNQTFNWNTTKQEHFPDNLLPSWAITLISVNGIFVICCLTYCFAPRCRERRRNERLRRESVRPV
notes: as for B1
Consider B12, for which the “loss in binding relative to WT” value in assay [1] was more than 25%.

B13: hB7-1 S49A–mCherry (ligand, human, UniProt P33681 35-288, looked up)
chain: VIHVTKEVKEVATLACGHNVSVEELAQTRIYWQKEKKMVLTMMSGDMNIWPEYKNRTIFDITNNLSIVILALRPSDEGTYECVVLKYEKDAFKREHLAEVTLSVKADFPTPSISDFEIPTSNIRRIICSTSGGFPEPHLSWLENGEELNAINTTVSQDPETELYAVSSKLDFNMTTNHSFMCLIKYGHLRVNQTFNWNTTKQEHFPDNLLPSWAITLISVNGIFVICCLTYCFAPRCRERRRNERLRRESVRPV
notes: as for B1
On to B13, for which the “loss in binding relative to WT” value (with CD28-GFP; in assay [1]) was more than 25% each time.

B14: hB7-1 K139D–mCherry (ligand, human, UniProt P33681 35-288, looked up)
chain: VIHVTKEVKEVATLSCGHNVSVEELAQTRIYWQKEKKMVLTMMSGDMNIWPEYKNRTIFDITNNLSIVILALRPSDEGTYECVVLKYEKDAFKREHLAEVTLSVDADFPTPSISDFEIPTSNIRRIICSTSGGFPEPHLSWLENGEELNAINTTVSQDPETELYAVSSKLDFNMTTNHSFMCLIKYGHLRVNQTFNWNTTKQEHFPDNLLPSWAITLISVNGIFVICCLTYCFAPRCRERRRNERLRRESVRPV
notes: as for B1
As to B14, in the assay with CD28-GFP, the “loss in binding relative to WT” value was more than 25%.

B15: hB7-1 K120D–mCherry (ligand, human, UniProt P33681 35-288, looked up)
chain: VIHVTKEVKEVATLSCGHNVSVEELAQTRIYWQKEKKMVLTMMSGDMNIWPEYKNRTIFDITNNLSIVILALRPSDEGTYECVVLDYEKDAFKREHLAEVTLSVKADFPTPSISDFEIPTSNIRRIICSTSGGFPEPHLSWLENGEELNAINTTVSQDPETELYAVSSKLDFNMTTNHSFMCLIKYGHLRVNQTFNWNTTKQEHFPDNLLPSWAITLISVNGIFVICCLTYCFAPRCRERRRNERLRRESVRPV
notes: as for B1
For the molecule B15, the “loss in binding relative to WT” value in the assay with CD28-GFP is more than 25%.

B16: hB7-1 Y65A–mCherry (ligand, human, UniProt P33681 35-288, looked up)
chain: VIHVTKEVKEVATLSCGHNVSVEELAQTRIAWQKEKKMVLTMMSGDMNIWPEYKNRTIFDITNNLSIVILALRPSDEGTYECVVLKYEKDAFKREHLAEVTLSVKADFPTPSISDFEIPTSNIRRIICSTSGGFPEPHLSWLENGEELNAINTTVSQDPETELYAVSSKLDFNMTTNHSFMCLIKYGHLRVNQTFNWNTTKQEHFPDNLLPSWAITLISVNGIFVICCLTYCFAPRCRERRRNERLRRESVRPV
notes: as for B1
Take B16: the “loss in binding relative to WT” value (with CD28-GFP; in assay [1]) was more than 25% in each case.
